Laboratory results taken from publication PMC3137622.
Numbering of substitutions follows the chain as printed. Names and notes keep the numbering of the source.

How the values were obtained:
[1] = biological target: monoclonal antibody 7C11 (anti-Bla g 2); test: ELISA dose-response; conditions: chain shown with the change, read off a plot
[2] = biological target: monoclonal antibody 7C11 (anti-Bla g 2); test: competition ELISA; conditions: chain shown with the change, solid phase rBla g 2-N93Q, read off a plot
[3] = biological target: monoclonal antibody 4C3 (anti-Bla g 2); test: ELISA dose-response; conditions: chain shown with the change, read off a plot
monoclonal antibody 4C3 (anti-Bla g 2), sequence (chain, as listed by the source, chain 1 of 2): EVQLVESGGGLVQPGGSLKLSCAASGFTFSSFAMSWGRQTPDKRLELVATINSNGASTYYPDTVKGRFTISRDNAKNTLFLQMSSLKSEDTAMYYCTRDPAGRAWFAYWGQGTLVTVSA
monoclonal antibody 4C3 (anti-Bla g 2), sequence (chain, as listed by the source, chain 2 of 2): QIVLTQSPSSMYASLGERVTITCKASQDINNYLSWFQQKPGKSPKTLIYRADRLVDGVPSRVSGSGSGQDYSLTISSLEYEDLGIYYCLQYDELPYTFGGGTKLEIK

[4] = biological target: monoclonal antibody 4C3 (anti-Bla g 2); test: competition ELISA; conditions: chain shown with the change, solid phase rBla g 2-N93Q, read off a plot
[5] = allergen concentration 100 ng/ml, parent: est. 1.8
[6] = competitor concentration 0.1 µg/ml, parent: est. 47
[7] = competitor concentration 1 µg/ml, parent: est. 5
[8] = allergen concentration 100 ng/ml, parent: est. 1.5
[9] = allergen concentration about 400 ng/ml (highest point of the series), parent: est. 1.9
[10] = competitor concentration 0.1 µg/ml, parent: est. 82
[11] = competitor concentration 1 µg/ml, parent: est. 32
[12] = competitor concentration 10 µg/ml, parent: est. 5
[13] = competitor concentration 100 µg/ml, parent: est. 1
[14] = allergen concentration 100 ng/ml, parent: est. 1.3
[15] = competitor concentration 0.1 µg/ml
[16] = competitor concentration 1 µg/ml
[17] = competitor concentration 10 µg/ml, parent: est. 1
[18] = competitor concentration 100 µg/ml, parent: est. 0
[19] = allergen concentration 100 ng/ml (read on the curve line), parent: est. 1.8
[20] = allergen concentration 100 ng/ml, parent: est. 0.48

monoclonal antibody 7C11 (anti-Bla g 2), sequence (chain, as listed by the source, chain 2 of 2, other chains not shown): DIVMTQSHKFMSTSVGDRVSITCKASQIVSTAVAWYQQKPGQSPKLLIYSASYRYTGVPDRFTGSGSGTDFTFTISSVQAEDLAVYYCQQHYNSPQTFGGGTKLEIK

B1: recombinant Bla g 2-N93Q R83A (protein)
chain: VPLYKLVHVFINTQYAGITKIGNQNFLTVFDSTSCNVVVASQECVGGACVCPNLQKYEKLKPKYISDGNVQVKFFDTGSAVGAGIEDSLTISQLTTSQQDIVLADELSQEVCILSADVVVGIAAPGCPNALKGKTVLENFVEENLIAPVFSIHHARFQDGEHFGEIIFGGSDWKYVDGEFTYVPLVGDDSWKFRLDGVKIGDTTVAPAGTQAIIDTSKAIIVGPKAYVNPINEAIGCVVEKTTTRRICKLDCSKIPSLPDVTFVINGRNFNISSQYYIQQNGNLCYSGFQPCGHSDHFFIGDFFVDHYYSEFNWENKTMGFGRSVESV
For B1, the response (Absorbance (405 nm)) [1, 5] was 1.5, the other: Biotinylated mAb 7C11 bound to Bla g 2 (%) [2, 6] was 82% and the other: Biotinylated mAb 7C11 bound to Bla g 2 (%) [2, 7] was 13%.

B2: recombinant Bla g 2-N93Q E233R; I199W (protein)
chain: B1 chain with A83R, I200W, E233R
Binder B2 has a response (Absorbance (405 nm)) [3, 8] of 0.14, a response (Absorbance (405 nm)) [3, 9] of 0.27 and an other: Biotinylated mAb 4C3 bound to Bla g 2 (%) [4, 10] of 100%. It also gave an other: Biotinylated mAb 4C3 bound to Bla g 2 (%) [4, 11] of 100%, an other: Biotinylated mAb 4C3 bound to Bla g 2 (%) [4, 12] of 69% and an other: Biotinylated mAb 4C3 bound to Bla g 2 (%) [4, 13] of 22%.

B3: recombinant Bla g 2-N93Q E233A (protein)
chain: B1 chain with A83R, E233A
Work on B3 yielded a response (Absorbance (405 nm)) [3, 8] of 1, an other: Biotinylated mAb 4C3 bound to Bla g 2 (%) [4, 11] of 58% and an other: Biotinylated mAb 4C3 bound to Bla g 2 (%) [4, 12] of 15%.

B4: natural Bla g 2 N268Q (protein)
chain: B1 chain with A83R, Q93N, N271Q
Work on B4 yielded a response (Absorbance (405 nm)) [3, 14] of 0.48, an other: Biotinylated mAb 4C3 bound to Bla g 2 (%) [4, 15] of 88% and an other: Biotinylated mAb 4C3 bound to Bla g 2 (%) [4, 16] of 46%. For the same binder, the other: Biotinylated mAb 4C3 bound to Bla g 2 (%) ([4]; competitor concentration 10 µg/ml) was 7%.

B5: recombinant Bla g 2-N93Q K132A (protein)
chain: B1 chain with A83R, K132A
Binder B5 has a response (Absorbance (405 nm)) [1, 5] of 0.12, a response (Absorbance (405 nm)) ([1]; allergen concentration about 400 ng/ml (highest point of the series), parent: est. 1.8) of 0.15 and an other: Biotinylated mAb 7C11 bound to Bla g 2 (%) [2, 6] of 100%. For the same binder, the other: Biotinylated mAb 7C11 bound to Bla g 2 (%) [2, 7] was 100%, the other: Biotinylated mAb 7C11 bound to Bla g 2 (%) [2, 17] was 99% and the other: Biotinylated mAb 7C11 bound to Bla g 2 (%) [2, 18] was 70%.

B6: recombinant Bla g 2-N93Q K65A (protein)
chain: B1 chain with K63A, A83R
B6 showed a response (Absorbance (405 nm)) [1, 19] of 0.3, a response (Absorbance (405 nm)) ([1]; allergen concentration about 4000 ng/ml (highest point of the series)) of 1.2 and an other: Biotinylated mAb 7C11 bound to Bla g 2 (%) [2, 6] of 91%. The other: Biotinylated mAb 7C11 bound to Bla g 2 (%) [2, 7] was 47% and the other: Biotinylated mAb 7C11 bound to Bla g 2 (%) [2, 17] was 11%.

B7: recombinant Bla g 2-N268Q E233R (protein)
chain: B1 chain with A83R, Q93N, E233R, N271Q
Binder B7 has a response (Absorbance (405 nm)) [3, 20] of 1.2.

B8: recombinant Bla g 2-N268Q E233R; I199W (protein)
chain: B1 chain with A83R, Q93N, I200W, E233R, N271Q
In the case of B8, the response (Absorbance (405 nm)) [3, 20] is reported as 0.2, the response (Absorbance (405 nm)) ([3]; allergen concentration about 400 ng/ml (highest point of the series), parent: est. 1.1) is reported as 0.4 and the other: Biotinylated mAb 4C3 bound to Bla g 2 (%) ([4]; competitor concentration 0.1 µg/ml, parent: est. 88) is reported as 93%. It also gave an other: Biotinylated mAb 4C3 bound to Bla g 2 (%) ([4]; competitor concentration 1 µg/ml, parent: est. 46) of 82%, an other: Biotinylated mAb 4C3 bound to Bla g 2 (%) ([4]; competitor concentration 10 µg/ml, parent: est. 7) of 78% and an other: Biotinylated mAb 4C3 bound to Bla g 2 (%) [4, 13] of 62%.

B9: recombinant Bla g 2-N93Q D68aA (protein)
chain: B1 chain with D67A, A83R
In the case of B9, the response (Absorbance (405 nm)) [1, 19] is reported as 0.48, the response (Absorbance (405 nm)) ([1]; allergen concentration about 4000 ng/ml (highest point of the series; curve at plateau)) is reported as 0.73 and the other: Biotinylated mAb 7C11 bound to Bla g 2 (%) [2, 6] is reported as 98%. It also gave an other: Biotinylated mAb 7C11 bound to Bla g 2 (%) [2, 7] of 82% and an other: Biotinylated mAb 7C11 bound to Bla g 2 (%) [2, 18] of 5%.

B10: recombinant Bla g 2-N93Q E233R (protein)
chain: B1 chain with A83R, E233R
Binder B10 has a response (Absorbance (405 nm)) [3, 8] of 1.7 and an other: Biotinylated mAb 4C3 bound to Bla g 2 (%) [4, 10] of 72%.

B11: recombinant Bla g 2-N93Q E86A (protein)
chain: B1 chain with A83R, E86A
With B11 the response (Absorbance (405 nm)) [1, 5] was 1.5, the other: Biotinylated mAb 7C11 bound to Bla g 2 (%) [2, 6] was 82% and the other: Biotinylated mAb 7C11 bound to Bla g 2 (%) [2, 7] was 18%.

B12: recombinant Bla g 2-N93Q D248A (protein)
chain: B1 chain with A83R, D251A
In the case of B12, the response (Absorbance (405 nm)) [3, 8] is reported as 1.8, the other: Biotinylated mAb 4C3 bound to Bla g 2 (%) [4, 10] is reported as 48% and the other: Biotinylated mAb 4C3 bound to Bla g 2 (%) [4, 11] is reported as 7%.

B13: natural Bla g 2 N93Q (protein)
chain: B1 chain with A83R
For B13, the response (Absorbance (405 nm)) [3, 14] was 1.5, the other: Biotinylated mAb 4C3 bound to Bla g 2 (%) [4, 15] was 82% and the other: Biotinylated mAb 4C3 bound to Bla g 2 (%) [4, 16] was 32%.

B14: recombinant Bla g 2-N93Q K251A (protein)
chain: B1 chain with A83R, K254A
Work on B14 yielded a response (Absorbance (405 nm)) [3, 8] of 0.14, a response (Absorbance (405 nm)) [3, 9] of 0.27 and an other: Biotinylated mAb 4C3 bound to Bla g 2 (%) [4, 10] of 100%. It also gave an other: Biotinylated mAb 4C3 bound to Bla g 2 (%) [4, 11] of 100%, an other: Biotinylated mAb 4C3 bound to Bla g 2 (%) [4, 12] of 93% and an other: Biotinylated mAb 4C3 bound to Bla g 2 (%) [4, 13] of 60%.
